{"source": "paper PMC3631546", "origin": "cited, not measured here", "target": "His37 (UniProt position 37, IIGILHLILWI)", "test": "NMR", "details": "membrane-bound tetrameric channel, no drug mentioned"}
{"substance": "Influenza A M2 proton channel, transmembrane peptide (M2TM) (Influenza A virus (strain not stated))", "values": [{"measurement": "pKa", "value": 8.2}]}
